Test results reported in paper PMC2782360.

Assays:
[1] = molecular target: native 67 kDa laminin receptor (67LR) shed from T47D cells (human (endogenous in T47D)) (UniProt P08865); test: SPR
[2] = molecular target: recombinant human 37 kDa laminin receptor precursor (37LRP) (human) (UniProt P08865); test: SPR

Kd [1]: 320 nM
Kd [2]: 410 nM
Substance: human laminin (complex)
